Laboratory results from patent US20220348651A1, “ENTPD2 ANTIBODIES, COMBINATION THERAPIES, AND METHODS OF USING THE ANTIBODIES AND COMBINATION THERAPIES” (Novartis AG, priority 2019, published 2022).

T1: ENTPD2 (Homo sapiens, UniProt Q9Y5L3)
T1 sequence (Q9Y5L3 1-495): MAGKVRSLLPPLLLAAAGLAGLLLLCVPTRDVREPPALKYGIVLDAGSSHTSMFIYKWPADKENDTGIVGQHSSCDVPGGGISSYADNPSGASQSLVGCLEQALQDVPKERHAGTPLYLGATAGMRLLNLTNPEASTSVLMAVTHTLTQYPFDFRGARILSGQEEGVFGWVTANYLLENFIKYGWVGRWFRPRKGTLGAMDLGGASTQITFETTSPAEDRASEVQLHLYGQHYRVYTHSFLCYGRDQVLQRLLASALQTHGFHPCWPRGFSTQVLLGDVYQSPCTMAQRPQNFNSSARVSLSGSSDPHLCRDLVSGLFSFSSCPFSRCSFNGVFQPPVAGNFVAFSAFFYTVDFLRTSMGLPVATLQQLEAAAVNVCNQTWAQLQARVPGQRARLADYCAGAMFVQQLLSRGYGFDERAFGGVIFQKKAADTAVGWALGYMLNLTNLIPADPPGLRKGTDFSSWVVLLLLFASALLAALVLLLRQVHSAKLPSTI

B1: mAb7: humanized anti-human ENTPD2 antibody from mAb17; VH SEQ ID NO: 25, VL SEQ ID NO: 78 (antibody, V domains shown)
VH: QVQLVQSGAEVVKPGASVKISCKASGYTFTDYNMDWVKQAPGQRLEWIGDINPKYDISTYNQQFKGKATITVDKSASTAYMELSSLRSEDTAVYYCARRGFFLYYGINYYYFDVWGQGTLVTVSS
VL: EIVLTQSPATLSASPGEEITLSCSASSSVSYIHWYQQKPGQAPRLLIYSTSNLASGIPARFSGSGSGTFYTLTISSVEPEDAAVYYCHQWSSYPWTFGGGTKLEIK
B2: mAb13: anti-mouse ENTPD2 antibody; HC SEQ ID NO: 193, LC SEQ ID NO: 204 (antibody)
heavy: QVQLVQSGAELKQPGQSVKISCKASGYTFTHYGMNWVKQAPGQGLKWMGWINTDTGNPTYADDFKGRFVFSLDTSVSTAYLQISNLKNEDTATYYCVRYGTLYSGYGFFFDSWGQGTLVTVSSAKTTAPSVYPLAPVCGDTTGSSVTLGCLVKGYFPEPVTLTWNSGSLSSGVHTFPAVLQSDLYTLSSSVTVTSSTWPSQSITCNVAHPASSTKVDKKIEPRGPTIKPCPPCKCPAPNLLGGPSVFIFPPKIKDVLMISLSPIVTCVVVDVSEDDPDVQISWFVNNVEVHTAQTQTHREDYNSTLRVVSALPIQHQDWMSGKEFKCKVNNKDLPAPIERTISKPKGSVRAPQVYVLPPPEEEMTKKQVTLTCMVTDFMPEDIYVEWTNNGKTELNYKNTEPVLDSDGSYFMYSKLRVEKKNWVERNSYSCSVVHEGLHNHHTTKSFSRTPGK
light: DIMMTQSPSSLSVSAGEKATITCKSSQSLFNSNTNKNYLNWYLQKPGQSPKLLFYYASTRHTGVPDRFIGSGSGTDFTLTITSVQDEDLADYYCQQWYSYPWTFGPGTKLEIKRADAAPTVSIFPPSSEQLTSGGASVVCFLNNFYPKDINVKWKIDGSERQNGVLNSWTDQDSKDSTYSMSSTLTLTKDEYERHNSYTCEATHKTSTSPIVKSFNRNEC

Experiments:
[1] = molecular target: T1, ENTPD2; assay: FACS binding to human ENTPD2 expressing cells (apparent FACS affinity); parameters: expressed in transfected cells; host or cells: NIH/3T3 (retroviral transduction)
Method: […] Cells were rinsed thoroughly with 1×PBS and treated with Accutase (Millipore #SCR005) to lift from growth plates and resuspended at approximately 1×10^5 cells/90 μL in 1× FACS buffer (2% FBS+0.1% NaN3 in PBS). In a 96-well U-bottom plate, 10 μL of 10× antibody solution in FACS buffer was pre-seeded and 90 μL of cell suspension was added. Cell were incubated for 30 minutes at 4° C., washed 1× with cold PBS and resuspended in 100 μL of 1:500 secondary antibody 1× FACS buffer (Allophycocyanin conjugated F(ab′)2 goat anti-human IgG, Fcγ specific; Jackson Immunoresearch, Cat#109-136-098). After additional incubation for 15 min at 4° C., cells were washed twice with PBS and resuspended in 100 μL of 1×FACS buffer with 4 μg/mL propidium iodide (Life Technologies, Cat#P3566). Geometric mean fluorescence intensity was calculated on live single cells using FlowJo software.

[2] = tested on: cyno ENTPD2; assay: FACS binding to cyno ENTPD2 expressing cells (apparent FACS affinity); parameters: species or system cynomolgus monkey
Method: FACS screening: Specific binding of candidate antibodies to endogenously expressed ENTPD2 was assessed by flow cytometry. Cells were rinsed thoroughly with 1×PBS and treated with Accutase (Millipore #SCR005) to lift from growth plates and resuspended at approximately 1×10^5 cells/90 μL in 1× FACS buffer (2% FBS+0.1% NaN3 in PBS). In a 96-well U-bottom plate, 10 μL of 10× antibody solution in FACS buffer was pre-seeded and 90 μL of cell suspension was added. Cell were incubated for 30 minutes at 4° C., washed 1× with cold PBS and resuspended in 100 μL of 1:500 secondary antibody 1× FACS buffer (Allophycocyanin conjugated F(ab′)2 goat anti-human IgG, Fcγ specific; Jackson Immunoresearch, Cat#109-136-098). After additional incubation for 15 min at 4° C., cells were washed twice with PBS and resuspended in 100 μL of 1×FACS buffer with 4 μg/mL propidium iodide (Life Technologies, Cat#P3566). Geometric mean fluorescence intensity was calculated on live single cells using FlowJo software.

[3] = tested on: B16F10 tumor model; assay: Syngeneic B16F10 tumor model, combination with anti-PD-1 Ab; tumor T cell influx by flow cytometry; format: in vivo, C57BL/6 mice
Method: B16F10 model was established in female C57BL/6 mice by subcutaneous injection of 0.5×10^6 cells into the right flank of each mouse. On day 7 once tumors reached approximately 30 mm^3, mice were randomized according to tumor volume into treatment groups (n=10 per group). Mice received treatment of either anti-mouse ENTPD2 mAb13 at a final dose 15 mg/kg, anti-PD-1 Ab (clone RMP1-14 Bio X Cell, West Lebanon, N.H.) i.p. at a final dose of 10 mg/kg or the combination of both treatments on days 1, 5, and 8. All doses were adjusted to individual mouse body weights.
In order to understand the impact of treatments on the tumor microenvironment, mice were euthanized on day 8 and tumors were dissociated in HyClone RPMI1640 media (GE Healthcare, Pittsburg, Pa.) using gentleMacs C-tubes (Miltenyi Biotec, Auburn, Calif.) on the gentleMacs Octo Dissociator (Miltenyi Biotec, Auburn, Calif.). Approximately 2×10^6 dissociated tumor cells were blocked with rat anti-mouse CD16/CD32 Ab (Biolegend, San Diego, Calif.) to reduce non-specific FcγRIII/II binding and subsequently stained with the following cocktail of Abs: rat anti-mouse CD45-BUV395 (clone 30-F11) (BD Biosciences, San Jose, Calif.), rat anti-mouse CD8a-BUV737 (clone 53-6.7) (BD Biosciences, San Jose, Calif.), rat anti-mouse CD4-BV510 (clone RM4-5) (BD Bioscience, San Jose, Calif.), anti-mouse CD69-PercPCy5.5 (clone H1-2F3) (Biolegend, San Diego, Calif.) and rat anti-mouse CD25-eFluor450 (clone eBio3C7) (eBioscience, San Diego, Calif.) at the manufacturers' recommended dilutions. All incubations and washes were performed in FACS Buffer composed of 1× HyClone Phosphate Buffered Saline (GE Healthcare, Pittsburg, PA), 1% HyClone Fetal Bovine Serum (GE Healthcare, Pittsburg, Pa.), 2 mM EDTA (ThermoFisher, Waltham Mass.). After staining with the cell surface antigen antibody cocktail, dissociated tumor cells were washed in FACS buffer, fixed and permeabilized using the eBioscience Foxp3/Transcription Factor Staining Buffer Kit (ThermoFisher, Waltham Mass.) to allow for intracellular staining with the mouse anti-mouse FOXP3-eFluor660 (clone 150D/E4) (eBioscience, San Diego, Calif.).

[4] = combination with anti-PD-1 Ab, tumor, day 8

Chain of cyno ENTPD2 (as listed by the source): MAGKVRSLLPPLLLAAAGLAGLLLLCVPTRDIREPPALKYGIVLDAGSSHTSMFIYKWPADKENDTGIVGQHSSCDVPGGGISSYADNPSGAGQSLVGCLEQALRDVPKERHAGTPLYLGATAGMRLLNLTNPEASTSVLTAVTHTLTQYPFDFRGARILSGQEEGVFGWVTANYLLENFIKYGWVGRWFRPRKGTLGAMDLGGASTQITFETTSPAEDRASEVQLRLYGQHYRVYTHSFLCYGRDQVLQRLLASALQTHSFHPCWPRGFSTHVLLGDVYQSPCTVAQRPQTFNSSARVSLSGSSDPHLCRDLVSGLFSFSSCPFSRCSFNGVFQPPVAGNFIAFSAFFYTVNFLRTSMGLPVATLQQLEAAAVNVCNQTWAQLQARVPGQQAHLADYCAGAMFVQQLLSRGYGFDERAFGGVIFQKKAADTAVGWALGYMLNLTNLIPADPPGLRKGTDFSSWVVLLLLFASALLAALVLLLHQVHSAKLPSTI

| Molecule | EC50 ([1]; NIH3T3 humanENTPD2 cells) | EC50 ([2]; NIH3T3 cynoENTPD2 cells) | anti-tumor efficacy ([3]; alone, mAb13 15 mg/kg, anti-PD-1 Ab 10 mg/kg i.p., days 1, 5, 8) | tumor growth relative to No Treatment control ([3]; combination of mAb13 15 mg/kg and anti-PD-1 Ab 10 mg/kg) | influx of activated CD4 T-helper cells (CD45+ CD8-CD4+ FOXP3-CD69+ CD25+), increase vs No Treatment [3, 4] | influx of activated CD8 T cells (CD45+ CD4-CD8+ CD69+ CD25+), change vs No Treatment [3, 4] | binding to human ENTPD2 [1] | binding to cyno ENTPD2 [2] |
| --- | --- | --- | --- | --- | --- | --- | --- | --- |
| B1 | 0.5 nM | 0.8 nM | – | – | – | – | – | – |
| B2 | – | – | No significant anti-tumor efficacy | significant reduction in tumor growth | 7.0 -fold | 5.8 -fold | no binding | no binding |
